Source: US6451571B1, “Thymidine kinase mutants” (University of Washington, priority 1994, dated 2002)
Where two headings read alike, the source gives them in different places.

B1: Guanylate kinase: human or murine guanylate kinase expressed from pREP8-7 in wild-type TK clone C3 cells (protein, UniProt Q16774 2-197, looked up)
Guanylate kinase: SGPRPVVLSGPSGAGKSTLLKRLLQEHSGIFGFSVSHTTRNPRPGEENGKDYYFVTREVMQRDIAAGDFIEHAEFSGNLYGTSKVAVQAVQAMNRICVLDVDLQGVRNIKATDLRPIYISVQPPSLHVLEQRLRQRNTETEESLVKRLAAAQADMESSKEPGLFDVVIINDSLDQAYAELKEALSEEIKKAQRTGA

Key:
ts13 BHK tk− cells = assay: ED50 determination with GCV or ACV in transfected BHK tk− cells (Alamar Blue); type: cell-based, baby hamster; conditions: pooled G418-resistant transfectants, 4 days on nucleoside analog
Description: Briefly, the cell transfections are performed as follows. Approximately 5×10^5 ts13 BHK tk^− cells (ATCC CRL-1632) are plated on 100 mm dishes in DMEM+10% calf serum. For each transfection 1 μg of pSV2neo and 10 μg of a pCMV construct (pCMV, pCMV:TK-wrong (HSVTK in the wrong orientation relative to the promoter), pCMV:HSVTK, pCMV:30, pCMV:75 or pCMV:132 DNA) in 0.25M CaCl2 are mixed with 0.5 ml 2×BBS (see Chen and Okayama) and preincubated at 37° C. at 2.5% CO2 […]. The CaCl2/DNA mix is added dropwise to the plates and mixed in well. After a 24 hour incubation at 37° C. in a 2.5% CO2 wet incubator, the cells are rinsed twice with Dulbecco PBS minus Ca/Mg and fed with fresh DMEM+10% calf serum. Plates are incubated at 37° C. with 6% CO2. After 72 hours post-transfection the cells are split 1:3 and plated in DMEM+10% calf serum containing G418 at 600 μg/ml.
The cells are selected on G418 (600 μg/ml) at 37° C. for 17 days. During this time the plates are pooled (for each DNA transfection) and split three times at a ratio of 1:3. Approximately 30-40 clones are selected in this manner for each transfected DNA containing a tk gene in the correct orientation. The pCMV and pCMV:TK-wrong transfections yielded between 130 and 140 clones each. […]
Determination of the fluorescence level of cells incubated in the presence of Alamar Blue directly relates to cell viability.

[1] = Enzyme kinetics of purified TK, thymidine; type: biochemical; conditions: substrate thymidine
Description: (§1) A single colony of pET23d:HSVTK, pET23d:30, pET23d:75 and pET23d:132 in BL21(DE3)tk^− cells is used to inoculate 5 ml of M9ZB medium (1% tryptone, 0.5% NaCl, 1×M9 salts, 1 mM MgSO4, 100 μM CaCl2 and 0.2% glucose) containing cabenicillin at 20 μg/ml. The culture is incubated at 37° C. overnight. The following day the 5 ml culture is used to inoculate 1L M9ZB+cabenicillin at 20 μg/ml and the culture allowed to grow at 37° C. to OD600 0.1. At that point IPTG is added to 0.4 mM and the culture incubated a further 3 hours. The cells are chilled on ice, pelleted by centrifugation and the pellets washed once in cell wash buffer (50 mM Tris, pH 7.5, 5mM EDTA, 10% sucrose) prior to freezing the pellets at −70° C. […]
(§2) A thymidylyl-sepharose column is used for a one step purification procedure (see Example 2). […] The extent of purification is monitored by Coomassie stained SDS:PAGE analysis and the concentration of purified protein determined using the BioRad Reagent (Bradford Reagent). […]
(§3) The kinetics of thymidine, ganciclovir and acyclovir phosphorylation by the wild-type, mutant 30 and 75 thymidine kinase enzymes with variant concentrations of radioactive nucleoside substrate are determined essentially as described in Example 3. Km and Vmax values are determined from double reciprocal plots and kcat values are calculated using the equation Vmax=kcat [Eo] where [Eo] is the total enzyme concentration. […]

[2] = Enzyme kinetics of purified TK, ganciclovir; type: biochemical; conditions: substrate ganciclovir
Description: as §1, §2, §3

BHK tk− cells = assay: Sensitivity of guanylate kinase transfectant pools to ACV in TK expressing clones; type: cell-based, baby hamster; conditions: three days with ACV
Description: pREP8-7, pREP8-7:hgmk and pREP8-7:mgmk are used to transfect BHK tk, TK-transfected clone C3 and 75-transfected clone D4. Histidinol is used to select pools of stable transfectants and to isolate individual clones.
As in Example 8, pools of transfectants are placed in 96 well microtiter dishes at 1000 cells/well. Eight replicates are incubated for three days in the presence of various GCV or ACV concentrations.

Molecule	EC50 (ts13 BHK tk− cells; read-out: ED50 ACV) [µM]	EC50 (ts13 BHK tk− cells; read-out: ED50 GCV) [µM]	Km [1] [µM]	kcat ([1]; per active site)	Km [2] [µM]	kcat ([2]; per active site)	increased sensitivity to ACV relative to TK expression alone (BHK tk− cells)
WT: wild-type HSV-1 thymidine kinase with McKnight sequence (pT7:HSVTKII and derived vectors)	25	20	0.38	.230 s⁻¹	47.6	.050 s⁻¹	–
B1	–	–	–	–	–	–	approximately 2 fold
